The results in this text go back to a protein production outcome set (Wang et al. 2014).

The nature of the data set: label from the status in PepcDB records.
For the sequence “MLDPATRTPPSLPDFIIGGAMKSATSSLHHLLSNHEQVYLPDGETHFFCMDDPVQHSGFFFPARAPSQRAPDYDRHGETNLDWYRQLFEPAHPDQCVGDYSSTYLPAPDAPLRIKRLLPDVKLLFMLRNPVDRTYSHYWHRVKTGRAVHGFEYELQHGPSTLLLRSFYKPQLERYFDFFPEDQVKVILFERFVDHTQAVVDEVCSFLGLETAVDVAGVDAHQNRSPVPRWPGLQLLLNYCTTGIETRSEGQLPYPAQPQSSYALQGLVHHLRQLNLTPRRPPPMNDSVRACLEQIFARKNQDLGTLLGVDLTSYWPFLRKQHDEPAETAA”, the protein production result is “failed”.

On to “MLCLHTSVHCYENPSVIFSLIYIIICKYMYYNILSATTIFILYSQIVGQNGDDIIKYYHSFLNYVIIFYMSRH”, for which the protein production entry is listed as “failed”.

For the sequence “MNHASDLILIGSTLLLALAAHAVGQKVHVPRVTLLLLLGALAGPDLLDLLPDNADQSFSLITQLTLAMVGFLLGERMSARDLRQGKEALIVSLAVTLLTAAAVILAVWAVTGNLPAALLLGGIATATAPAATLDVLREAGANGPLTRLVFQVVAIDDAWGAILFSVLLVAAGLLLGNGDLSGPTAMLHGLWEVAGSVLLGMVLGFPMAWLTGRLRPGEPMLLESAGFVFVAAGLASWFGLSYLLTCMTLGIVVANRARHHVRPFRSIEGISEPFLALFFFMAGYQLDWLALPTLGALGLAYVLARIGGRLAGGYLGGLLAGSAPETRQRIGACLMPQAGVALGLALVATERLPELGYILPLVIGATVVFELIGPPMTLLQLRKAGETGQGYQEEPDE”, the protein production result is “failed”.

With “MQSTIVIVNLLGAVALLLFGLAQVKDGVTRAFGMKLRSVLATGTQNGPRSFFSGFFATVALQSSTATALTVASFAERDLIKPRMAQVVLLGANVGTAVTAWIVAAGVEWLSPLLILAGIILKKGSSNARQGGGTAVIGIGLMLLSLHLLSGATEPMRASPALGVFIGLLDGAWPVALIFSAVLAFVSSSSLAVVVLILSLTATGTLSTGLIIVLILGANLGGAIPPVIATLSGPASARRITIGNLVVRTIGCLIAMPLASYGATYLQQLPLSPAKLPVDAHLIFNLILATLAWPFSGLISDLMAKLVPGDPKAEDGPNFLDQQALDVPVVALANATREVLSVGDSIERMLIRAENAFKHNDLAPLQEVALLEKKVDRRQQEVKVYLSQLGRKGLTDEEARRSIAIIDYAINLEHIGDIIEKGICEQIRKKVLNSFKFSDDGYEELKTLFDMTIENLRAAQSILVTGDFELARRLMESKVDIRRLEKQSSNRHLERLRDGLAESMQTSSLHLDMLRDLKRINAHIVTVAHPILDESGVLIESRLRYAEPRA”, the protein production entry is “failed”.

With “MKPIRYTIAPAAPEAHLFTVTVTVDAPDPQGQRFSLPAWIPGSYMIREFARNIVRIEAMCGERAVRLAKLDKHTWQAAPCSGPLTVSYDVYAWDLSVRAAHLDPTHGFFNGTSVFLRVEGGEQVRCLVDIQPPAGDAYRGWRVATALREASGRVQGRVGAKRYGFGWYEAADYDELIDHPVEMGTFALVSFEACGAQHDAVFTGRVPNLDLERIARDFKRICEAQIRLFEPHTAAAPFLDSNRRYVFMTMVTTDGYGGLEHRASTALICARNDLPVTGRDETTEGYRTFLGLVSHEYFHTWNVKRIKPAVFVPYALDREVHTPLLWLFEGFTSYYDDLMLVRSGLISEAQYLEMLAKTWNGVLRGSGRLKQSVAESSFDAWTKYYRQDENAPNAIVSYYTKGSLVALALDLTIRTQTGGEHSLDDVMRALWAAGGRDFYAPGHAQRGVTEAELIALMEETTGLRLRTLVRQLAEGRDDPPLPALFKAIGVTATRKPAEAALGLGAKVGAENGFVKLLQVFDGGPAQRAGLSAGDLVVAVDGLRVLSGQLDKSLARHRAGDTVPVHVFRRDELMQLDVTLSADATPQFALALSAEPSPLRSAWLGKRAAARGARPAKSRSAA”, the protein production entry is given as “failed”.

As to “MSINIISIVSIIIWILLITELIKPSKEQNGRKIVTLVTAGSASTLILTVSFIQNIPFWN”, the protein production entry is “failed”.

With “MLIENAVDFIENANIGIHTVSPEGIIKYANEHELTVLGYTEDEYVGHHVSEFQFDKSCLEQMMIKLAKFESFSNFPAMVCGKLKMKYILYNSSVYAEDGEFVHTRCFGNEISKSVYQACKVDYKKSLTNRVD”, the protein production result is “failed”.

Consider “MKEDPRIIKTLSKLQKAFVMLLKTYDAGDINVRQISDEAGVTRGAFYSHFSDKKEFVNFTINELVGSLFNSSLKDSVGFVDEVNHKNAHGTNVLSVSNFFDKVAADYQTYTIVLDTEKLPQFTEVLKERLNSEIKTFAEYYGKKVKHDGFPIEVLSSYYVNGLIGMIRMWLDEGMVYTSHYMANAAKKILGTKIQIDSQNIDLSDFFVDLEHHHHHH”, for which the protein production entry is “not failed”.

On to “MKKTPIYVEISIQAEMERLWRYTQDPTLHRQWDLRFTDITYLKRRPGEPQRFLYETRIGFGLKISGTGESAGNVFQDTGDRVSSLKFATNHPLSVIREGRGYWKYSESETGITFMTQYDYDTRYGRLGRLADMAFRPLLGWATAWSFDALKIWLEKGLHPRLLFQKTLVYWLVCLLFSFVWIYQGLVPKLIMAHPGEISMLSAFTGGRFHPETLLRLIGLAEVMVGVLWLYPVRKRKWFLLHIVLLVLLSASAGMADIASFAEPFNPVVLNAALIILSVIGYVSACGIPNAGNTIRKRR”, for which the protein production entry was “failed”.

Turning to “MNDPQKLCDVNFFRPRKGYMTGEVAIIAAVLVGWAVANFGFQGVLALLAQSPDGEGILTRLTFLSFPWHFWFTGQFLPLWFIILCVLFNIYIDRHTEQHSRRRDRSHD”, the protein production result is listed as “failed”.

For the sequence “MTGDYALCGWRVRIDRPSTFAPPWIGEDRPVDITIRHAAFSPPSPPLLFESPLVGVFAEGAIVLRINPGLGFLIEGGARITVDATAQTGEAEIATFLFGQCLGFLALQRRQPALRAASVVRDGRAVVLAGAAGVGKSTLAAALMAKGWGLLADEVTLIDPRTLLIPPAFGRIKLWKDSATHLGLEAAALPAVRPGWNKGHAPYGGHLAPAPVPLAAIILIEQAYTAKTAGIDKIAPREALAALNDQLHGGTFAGALAARPACFDLLTTLVGGVPVFQLSRPWHGMTLAPLVELLTAEMARLEHHHHHH”, the protein production entry was “failed”.

As to “MQMNSEKFFKLFRVGETVLVEYSGTSRAELLLYYIVNNSKLPIVVDDILDTYYEFYTRLKVAGFDVAPLENVQVIKMGGTKDIGRVIGRLNISKYVISEQEYMEIVSQLKDYPVINPVLGLHKLILLGNTFENINVVKMVSNYVGREERIAFYFVNRNVIEKHSSPILDLLEEVVTSILEITDSGIIIKKSIKDEIAGKIVSPLLNF”, the protein production entry is recorded as “not failed”.

Turning to “MDSDFHVKPEIRILGIDDSALLNEKVMIVGTVFRGGDWIDGVLRSEITRDGLDATEVMVTMIKNSRHHNQLRVIMLDGITYGGFNVVDIEELYRETGLPVIVIMRSCPDFEKIRSALKHFSDGEERWKIIKKAGKIEKLITGRNGTPIYIQKAGIGAKNVEKIIRLTSIRSSIPEPLRVAHLIATGITLGESRGKA”, the protein production entry is “failed”.

Regarding “MGGGNAQKSAMARAKNLEKAKAAGKGSQLEANKKAMSIQCKVCMQTFICTTSEVKCREHAEAKHPKADVVACFPHLKK”, the protein production result was “not failed”.

Regarding “MQLRTKLVIYSTVCCAFGVLLTLATMKYLFSTSSPEVATPATLPDVQLPELDLAQLQDSVAAIESAIKNTEQFQQAFSLQERLRADQIKHELQKLEQLKQEQLQIKLYKLELLKQGLFNPAPHPANMVPALPVVEQSKLPPLSLDPQAEHTPPIFELVLVILLACSVCALGVAWFTRHLARSLDALEVGLLNFNDNDFSVSIPTNGEGQLKTLAELFNHSAAKLRQERQYIYQRELLLDKVIQSSPNVMLLLNDHQRLMYANDAARHLFQIKGKMEGLSLEELLQELPEALALALKQEKSGLFTMGEDDAETWYLSRGQFLLNNQQHNLILLKQMTRELNRQEVAVWKKVIRIISHELNNSVAPIASMVNSGRLLTKDLDNPKLKLIFDTIESRTNHLSQFIYNYARFAKLPLPQRRKVAWSQLIEQLTQHYPFSLTHELPIEDGYVDQGQMEQVLLNLLKNAHESGSNPEEVTLSIRYQKMVDGGGFSIKIEDRGSGMSEEVLEQALLPFYSTKQSGTGLGLPLCREIIEAHDGSISMHNRTEGGLSVLLWLPQ”, the protein production result is “failed”.

Turning to “MTDWQQALDRHVGVGVRTTRDLIRLIQPEDWDKRPISGKRSVYEVAVHLAVLLEADLRIATGATADEMAQFYAVPVLPEQLVDRLDQSWQYYQDRLMADFSTETTYWGVTDSTTGWLLEAAVHLYHHRSQLLDYLNLLGYDIKLDLFE”, the protein production entry is recorded as “not failed”.

As to “MKNEPIYNLLNSINSPDDLRRLEVDQLPEVCDELRQDIIKELSCNPGHFAASLGTVELTVALHYVYNTPYDRIVWDVGHQAYGHKILTGRREAFSTNRKLGGIRPFPSPEESEYDTFTCGHASNSISAALGMAVAAAKKGDDQRHVIAIIGDGSMSGGLAFEGLNNSSTTPNNLLIILNDNDMAIDRSVGGMKQYLFNLTTSNRYNQLRFKASRLLFKLGILNDERRKALIRFGNSLKSMAAQQQNIFEGMNIRYFGPIDGHDIKNLSRVLRDIKDLKGPKILHLHTIKGKGFAPAEKHATEWHAPGKFDPVTGERFVANTEGMPPLFQDVFGNTLVELAEANPRIVGVTPAMPSGCSMNILMSKMPKRAFDVGIAEGHAVTFSGGMAKDGLQPFCNIYSSFMQRAYDNIIHDVAIQNLPVVLCLDRAGLVGEDGPTHHGAFDMAYLRPIPNLTIASPMNEHELRRLMYTAQLPDKGPFVLRYPRGRGVLVDWKCPLEEIPVGKGRKLKDGKDIAVISIGPIGNKARSAIARAESESGRSIAHYDLRFLKPLDEELLHEVGRTFRHIVTIEDGTIQGGMGSAVLEFMADHEYTPTVKRIGIPDKFVQHGTVAELYQLCGMDEDSLTKELLKQCELLPDMSKIKELTN”, the protein production result is on record as “failed”.

On to “DKIGIERFLFPLGLYSYFRWMKQYERDRGLFLSLLLSLLYESTHNFLSVIFSSITGDNFVLQY”, for which the protein production result is on record as “failed”.

As for “MTHPLYIFDLDETLINGDCAMIWNEFLVDKGIVTTPDFLEEDKRLMTLYSRGLMDMEDYLIFAMSPLKNIPTDQVEILIEECVNERILPLLFPEAKILIHQLKADNVDMIVISASVSFLVKIVAKNIGIKHAIGIDLKEKNGCYTRHILGVPSYREGKVSRLTEWLNGGDKTYSALHFYTDSINDLPLCLYADHTYLVNPCEQLAVYSKKKNWPILAWGSQ”, the protein production result is “failed”.

With “AGHRGQCVGRHREVVAIDNSKATNPHAADSALAGFSSVVWVAGGQLKGAEIDELIVRHAGRIKAVALLGVDRDVIEDSVRTHIPGIPVLSVSETDPRRAMDEAVAWSVSQAEAGDAIVLAPAAASLDMYTGMGQRGDMFATAIAQHLHD”, the protein production result is reported as “failed”.

As for “MSTIIETGKSDFIKVNVSNSHNDAVAFEVKLAKDLTVAQLKTKLEILTGGCAGTMKVQVFKGDTCVSTMDNNDAQLGYYANSDGLRLHVVDSFATFSFDSAPVEKFELSKDQYEQRTDSVRNYLKINRMGKYNDEEMQQAEEKKRLQAEEIQKRAELCVLGGRCEVTVPGNPTRRGTIRYNGPLEGKSGHFIGVEYDEPLGKNNGSFGGKAYFTCAPNYGGFVSPLSVTVGDFPPEDFNMDDEL”, the protein production result is “failed”.

For the sequence “MPMPSVRHDEHRPLSPAATLIGPARALEAVLAPGPGPGRPPGLPRPAPGTRRAMKWQQVQEGPSAVYVVVLDQGEDAVAELTAFARERSLGASQVTAVGAFSQAVVGWFDRQAKDYRHIPVREQCEVLSLIGDIAVADDGPTPHLHAVLGLSDGSTRGGHLLSGRVWPTLEVVVRDSPAELAKIHRPDIGLALIDPG”, the protein production entry is on record as “failed”.

Consider “MKCNDKLAPFEVFDHVVNKKLSFRHVTMDDVDMLHSWMHEEHVIPYWKLNIPLVDYKKHLQTFLNDDHQTLMVGAINGVPMSYWESYWVKEDIIANYYPFEEHDQGIHLLIGPQEYLGQGLIYPLLLAIMQQKFQEPDTNTIVAEPDRRNKKMIHVFKKCGFQPVKEVELPDKIGLLMKCEQNVFEKRWSDWKMNKF”, for which the protein production entry is listed as “not failed”.
